Key:
Settings in all cases: both partners purified
[1] = molecular target: T1, RpfG-MBP (Lysobacter enzymogenes); experiment: SPR; RpfG-MBP on the sensor, HtsH cytoplasmic fragments bound to it; conditions not given
T1 chain: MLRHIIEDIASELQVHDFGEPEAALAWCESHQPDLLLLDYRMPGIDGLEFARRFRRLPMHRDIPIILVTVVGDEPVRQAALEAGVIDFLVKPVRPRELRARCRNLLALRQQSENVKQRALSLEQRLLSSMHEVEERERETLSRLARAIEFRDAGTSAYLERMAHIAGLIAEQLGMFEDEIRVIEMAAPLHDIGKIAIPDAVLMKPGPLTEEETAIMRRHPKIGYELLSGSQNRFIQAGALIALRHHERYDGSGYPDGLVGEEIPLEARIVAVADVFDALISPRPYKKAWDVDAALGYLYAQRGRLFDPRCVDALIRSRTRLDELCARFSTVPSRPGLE

[2] = molecular target: HtsH3C-Myc-His (Lysobacter enzymogenes); experiment: SPR; HtsH cytoplasmic fragments against each other (Supplementary Fig. 5); who was immobilised and conditions not told
[3] = molecular target: HtsH2C-HA-His (Lysobacter enzymogenes); experiment: as above

| Binder | Kd [1] [nM] | Kd [2] [nM] | Kd [3] [nM] |
| --- | --- | --- | --- |
| HtsH3C-Myc-His (domain or fragment, Phosphorylated as purified (CIAP-sensitive). Primers give (M)AKTRFL... to ...ARRGEG (C-terminus). Positions are inferred from the candidate's His-kinase domain start. Assignment of this entry to …) not shown | 168 | – | – |
| HtsH1C-Flag-His (domain or fragment, Phosphorylated as purified (CIAP-sensitive). Limits from the expression primers: (M)AKTRFL... to ...LFEREA, just before the His-kinase domain to the C-terminus. The start codon Met and Flag/His tags …) not shown | 66.8 | 160 | 96.2 |
| HtsH2C-HA-His (domain or fragment, Phosphorylated as purified (CIAP-sensitive). Primers give (M)AKTRFL... to ...DAADAP (C-terminus). The candidate lists no features, so the start is estimated from the paralogues' fragment lengths and …) not shown | 300 | 178 | – |

Source: paper PMC8463545, “The predatory soil bacterium Lysobacter reprograms quorum sensing system to regulate antifungal antibiotic production in a cyclic-di-GMP-independent manner” (Communications Biology, 2021)
